T1: factor VIIIa (human, UniProt P00451 20-2351)
T1 sequence (looked up): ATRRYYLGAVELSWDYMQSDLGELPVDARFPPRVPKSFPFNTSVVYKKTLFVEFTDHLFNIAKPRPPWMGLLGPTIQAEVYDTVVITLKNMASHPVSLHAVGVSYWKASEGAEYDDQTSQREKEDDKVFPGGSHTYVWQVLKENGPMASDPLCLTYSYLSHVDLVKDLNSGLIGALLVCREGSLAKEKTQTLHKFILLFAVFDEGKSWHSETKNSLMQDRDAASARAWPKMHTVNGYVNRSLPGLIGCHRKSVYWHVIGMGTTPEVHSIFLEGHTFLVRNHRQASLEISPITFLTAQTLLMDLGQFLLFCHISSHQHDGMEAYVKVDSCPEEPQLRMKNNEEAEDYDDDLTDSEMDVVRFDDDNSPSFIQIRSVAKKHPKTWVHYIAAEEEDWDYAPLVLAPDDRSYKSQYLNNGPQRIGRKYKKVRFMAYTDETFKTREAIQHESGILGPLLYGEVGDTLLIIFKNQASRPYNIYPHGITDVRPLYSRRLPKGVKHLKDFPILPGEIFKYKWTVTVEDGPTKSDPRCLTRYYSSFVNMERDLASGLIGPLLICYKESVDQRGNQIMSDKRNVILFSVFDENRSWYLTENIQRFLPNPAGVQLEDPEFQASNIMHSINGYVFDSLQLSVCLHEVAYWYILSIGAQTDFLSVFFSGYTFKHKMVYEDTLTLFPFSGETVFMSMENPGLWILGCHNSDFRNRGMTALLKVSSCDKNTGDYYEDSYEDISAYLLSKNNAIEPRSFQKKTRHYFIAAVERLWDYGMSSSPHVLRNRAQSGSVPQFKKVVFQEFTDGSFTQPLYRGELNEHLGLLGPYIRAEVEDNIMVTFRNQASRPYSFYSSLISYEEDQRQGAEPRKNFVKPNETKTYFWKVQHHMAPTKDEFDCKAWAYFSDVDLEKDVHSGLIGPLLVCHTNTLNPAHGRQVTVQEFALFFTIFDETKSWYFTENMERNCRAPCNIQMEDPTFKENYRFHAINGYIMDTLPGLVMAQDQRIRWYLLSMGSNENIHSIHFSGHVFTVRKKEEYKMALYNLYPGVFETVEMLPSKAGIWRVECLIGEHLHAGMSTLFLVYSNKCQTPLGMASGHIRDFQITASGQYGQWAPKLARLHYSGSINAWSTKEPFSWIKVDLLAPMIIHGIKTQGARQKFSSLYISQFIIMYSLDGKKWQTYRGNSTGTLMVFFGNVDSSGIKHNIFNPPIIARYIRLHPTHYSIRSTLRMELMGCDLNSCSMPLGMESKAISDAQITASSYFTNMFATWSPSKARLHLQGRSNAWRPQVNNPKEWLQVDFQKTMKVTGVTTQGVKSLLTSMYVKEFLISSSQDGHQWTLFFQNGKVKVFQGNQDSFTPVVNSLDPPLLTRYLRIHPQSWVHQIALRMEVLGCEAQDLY


molecular target: T1, factor VIIIa; assay: Kd from the peptide competition assay (factor X activation by IXa with VIIIa and phospholipid)

Row | Binder | Kd [µM]
1 | DGDQCESNPCLNGGSCKDDINSYECWCPFGFEGKNCELD (other, UniProt P00740 93-131, looked up, domain: EGF1 Domain) [EGF1 Domain] | 6
2 | LVDRAT [P-4351 SEQ ID NO: 6 (LVDRAT)] | 0.35
3 | LVYRAT [P-4352 SEQ ID NO: 7 (LVYRAT)] | 6.6
4 | LVDQAT [P-4353 SEQ ID NO: 8 (LVDQAT)] | 4.7
5 | TKVSRYVN [P-4354 (TKVSRYVN)] | 1
6 | DRAT [P-4488 SEQ ID NO: 2 (DRAT)] | 44.9

molecular target: T1, factor VIIIa; assay: peptide competition assay: inhibition of factor X activation by IXa with VIIIa and phospholipid
Method: Each reaction was incubated for either 30, 60, 90, or 120 seconds and the reaction was stopped by adding 1.5 μL of 0.5 M EDTA and placed on ice. Forty μL of each reaction was added to 100 μL of TBS/BSA in a 96 well microtiter plate and S-2222 (Bz-Ile-Glu(γ-OR)-Gly-Arg-p-nitroanilide) was added to a final concentration of 100 μM.

Row | Binder | IC50 [µM]
7 | DGDQCESNPCLNGGSCKDDINSYECWCPFGFEGKNCELD (other, UniProt P00740 93-131, looked up, domain: EGF1 Domain) [EGF1 Domain] | 12
8 | LVDRAT [P-4351 SEQ ID NO: 6 (LVDRAT)] | 0.7
9 | LVYRAT [P-4352 SEQ ID NO: 7 (LVYRAT)] | 13.2
10 | LVDQAT [P-4353 SEQ ID NO: 8 (LVDQAT)] | 9.3
11 | DRAT [P-4488 SEQ ID NO: 2 (DRAT)] | 89.8

Reference: patent US20040110688A1 (SAINT LOUIS UNIVERSITY, published 2004)
